In the Human Domainome abundance scans (Beltran et al. 2025) one finds abundance fitness data, which are given here for 53 variants.

± gives the uncertainty stated by the source.

B1: Histone-lysine N-methyltransferase SETD2, residues 2382 to 2430; numbered along this chain, Q9BYW2 (parent)
chain: SPPKPKTIVLPPNWKTARDPEGKIYYYHVITRQTQWDPPTWESPGDDAS

In the data set the parent is B1. Briefly: abundance fitness (aPCA) (normalised: wild type 0, dead -1); higher = more abundant; growth selection in yeast, the domain comes from the species named. The following applies: Homo sapiens.
Consider SPPKPKTIVLPPNWKTARDPEGKILYYHVITRQTQWDPPTWESPGDDAS [Y25L], for which the abundance fitness is -0.358 ± 0.047.

In the case of SPPKPKTIVLPPNWKTARDPEGKIKYYHVITRQTQWDPPTWESPGDDAS [Y25K], the abundance fitness is -0.569 ± 0.089.

On to SPPKPKTIVLPPNWKTARDPEGKIFYYHVITRQTQWDPPTWESPGDDAS [Y25F], for which the abundance fitness was -0.227 ± 0.12.

For SPPKPKTIVLPPNWKTARDPEGKIIYYHVITRQTQWDPPTWESPGDDAS [Y25I], the abundance fitness is -0.38 ± 0.11.

Consider SPPKPKTIVLPPNWKTARDPEGKISYYHVITRQTQWDPPTWESPGDDAS [Y25S], for which the abundance fitness is -0.628 ± 0.066.

For the variant SPPKPKTIVLPPNWKTARDPEGKIDYYHVITRQTQWDPPTWESPGDDAS [Y25D], the abundance fitness is -0.485 ± 0.11.

Consider SPPKPKTIVLPPNWKTARDPEGKIVYYHVITRQTQWDPPTWESPGDDAS [Y25V], for which the abundance fitness is -0.395 ± 0.039.

On to SPPKPKTIVLPPNWKTARDPEGKIQYYHVITRQTQWDPPTWESPGDDAS [Y25Q], for which the abundance fitness is -0.454 ± 0.1.

SPPKPKTIVLPPNWKTARDPEGKITYYHVITRQTQWDPPTWESPGDDAS [Y25T]: the abundance fitness is -0.73 ± 0.14.

Consider SPPKPKTIVLPPNWKTARDPEGKICYYHVITRQTQWDPPTWESPGDDAS [Y25C], for which the abundance fitness was -0.538 ± 0.077.

Take SPPKPKTIVLPPNWKTARDPEGKIWYYHVITRQTQWDPPTWESPGDDAS [Y25W]: the abundance fitness is -0.907 ± 0.13.

For SPPKPKTIVLPPNWKTARDPEGKIPYYHVITRQTQWDPPTWESPGDDAS [Y25P], the abundance fitness is -0.784 ± 0.17.

For the variant SPPKPKTIVLPPNWKTARDPEGKIHYYHVITRQTQWDPPTWESPGDDAS [Y25H], the abundance fitness was -0.419 ± 0.12.

For the variant SPPKPKTIVLPPNWKTARDPEGKIGYYHVITRQTQWDPPTWESPGDDAS [Y25G], the abundance fitness was -0.844 ± 0.051.

SPPKPKTIVLPPNWKTARDPEGKIRYYHVITRQTQWDPPTWESPGDDAS [Y25R]: the abundance fitness is -0.628 ± 0.049.

For SPPKPKTIVLPPNWKTARDPEGKIMYYHVITRQTQWDPPTWESPGDDAS [Y25M], the abundance fitness is -0.56 ± 0.047.

As for SPPKPKTIVLPPNWKTARDPEGKINYYHVITRQTQWDPPTWESPGDDAS [Y25N], the abundance fitness was -0.911 ± 0.17.

For SPPKPKTIVLPPNWKTARDPEGKIAYYHVITRQTQWDPPTWESPGDDAS [Y25A], the abundance fitness is -0.642 ± 0.072.

Turning to SPPKPKTIVLPPNWKTARDPEGKIYAYHVITRQTQWDPPTWESPGDDAS [Y26A], the abundance fitness was -0.865 ± 0.059.

SPPKPKTIVLPPNWKTARDPEWKIYYYHVITRQTQWDPPTWESPGDDAS [G22W]: the abundance fitness was -0.224 ± 0.093.

As to SPPKPKTIVLPPNWKTARDPELKIYYYHVITRQTQWDPPTWESPGDDAS [G22L], the abundance fitness was -0.593 ± 0.11.

For the variant SPPKPKTIVLPPNWKTARDPEQKIYYYHVITRQTQWDPPTWESPGDDAS [G22Q], the abundance fitness was -0.841 ± 0.18.

For SPPKPKTIVLPPNWKTARDPESKIYYYHVITRQTQWDPPTWESPGDDAS [G22S], the abundance fitness was -0.297 ± 0.07.

On to SPPKPKTIVLPPNWKTARDPEVKIYYYHVITRQTQWDPPTWESPGDDAS [G22V], for which the abundance fitness is -0.782 ± 0.088.

Take SPPKPKTIVLPPNWKTARDPETKIYYYHVITRQTQWDPPTWESPGDDAS [G22T]: the abundance fitness was -1.02 ± 0.078.

For SPPKPKTIVLPPNWKTARDPEMKIYYYHVITRQTQWDPPTWESPGDDAS [G22M], the abundance fitness is -0.636 ± 0.14.

SPPKPKTIVLPPNWKTARDPENKIYYYHVITRQTQWDPPTWESPGDDAS [G22N]: the abundance fitness is -0.555 ± 0.32.

Consider SPPKPKTIVLPPNWKTARDPERKIYYYHVITRQTQWDPPTWESPGDDAS [G22R], for which the abundance fitness was -0.607 ± 0.059.

Take SPPKPKTIVLPPNWKTARDPEGKWYYYHVITRQTQWDPPTWESPGDDAS [I24W]: the abundance fitness was -0.123 ± 0.27.

On to SPPKPKTIVLPPNWKTARDPEGKGYYYHVITRQTQWDPPTWESPGDDAS [I24G], for which the abundance fitness is -0.578 ± 0.22.

As for SPPKPKTIVLPPNWKTARDPEGKHYYYHVITRQTQWDPPTWESPGDDAS [I24H], the abundance fitness was -0.549 ± 0.48.

In the case of SPPKPKTIVLPPNWKTARDPEGKTYYYHVITRQTQWDPPTWESPGDDAS [I24T], the abundance fitness was -0.228 ± 0.41.

With SPPKPKTIVLPPNWKTARDPEGKYYYYHVITRQTQWDPPTWESPGDDAS [I24Y], the abundance fitness was -0.336 ± 0.33.

Take SPPKPKTIVLPPNWKTARDPEGKVYYYHVITRQTQWDPPTWESPGDDAS [I24V]: the abundance fitness was -0.406 ± 0.27.

Regarding SPPKPKTIVLPPNWKTARDPEGKAYYYHVITRQTQWDPPTWESPGDDAS [I24A], the abundance fitness was -0.253 ± 0.23.

As for SPPKPKTIVLPPNWKTARDPEGYIYYYHVITRQTQWDPPTWESPGDDAS [K23Y], the abundance fitness was -0.316 ± 0.11.

On to SPPKPKTIVLPPNWKTARDPEGCIYYYHVITRQTQWDPPTWESPGDDAS [K23C], for which the abundance fitness was -0.402 ± 0.094.

Take SPPKPKTIVLPPNWKTARDPEGVIYYYHVITRQTQWDPPTWESPGDDAS [K23V]: the abundance fitness is -0.303 ± 0.054.

With SPPKPKTIVLPPNWKTARDPEGDIYYYHVITRQTQWDPPTWESPGDDAS [K23D], the abundance fitness was -0.493 ± 0.047.

In the case of SPPKPKTIVLPPNWKTARDPEGWIYYYHVITRQTQWDPPTWESPGDDAS [K23W], the abundance fitness was -0.789 ± 0.047.

Regarding SPPKPKTIVLPPNWKTARDPEGTIYYYHVITRQTQWDPPTWESPGDDAS [K23T], the abundance fitness was -0.147 ± 0.044.

For the variant SPPKPKTIVLPPNWKTARDPEGIIYYYHVITRQTQWDPPTWESPGDDAS [K23I], the abundance fitness is -0.447 ± 0.14.

In the case of SPPKPKTIVLPPNWKTARDPEGEIYYYHVITRQTQWDPPTWESPGDDAS [K23E], the abundance fitness is -0.433 ± 0.12.

For the variant SPPKPKTIVLPPNWKTARDPEGQIYYYHVITRQTQWDPPTWESPGDDAS [K23Q], the abundance fitness is -0.28 ± 0.09.

Consider SPPKPKTIVLPPNWKTARDPEGHIYYYHVITRQTQWDPPTWESPGDDAS [K23H], for which the abundance fitness was -0.686 ± 0.28.

As for SPPKPKTIVLPPNWKTARDPEGLIYYYHVITRQTQWDPPTWESPGDDAS [K23L], the abundance fitness is -0.457 ± 0.035.

SPPKPKTIVLPPNWKTARDPEGFIYYYHVITRQTQWDPPTWESPGDDAS [K23F]: the abundance fitness is -0.619 ± 0.15.

Take SPPKPKTIVLPPNWKTARDPEGNIYYYHVITRQTQWDPPTWESPGDDAS [K23N]: the abundance fitness is -0.563 ± 0.14.

As for SPPKPKTIVLPPNWKTARDPEGMIYYYHVITRQTQWDPPTWESPGDDAS [K23M], the abundance fitness is -0.514 ± 0.08.

Consider SPPKPKTIVLPPNWKTARDPEGGIYYYHVITRQTQWDPPTWESPGDDAS [K23G], for which the abundance fitness was -0.243 ± 0.035.

SPPKPKTIVLPPNWKTARDPEGRIYYYHVITRQTQWDPPTWESPGDDAS [K23R]: the abundance fitness was 0.029 ± 0.034.

Turning to SPPKPKTIVLPPNWKTARDPEGSIYYYHVITRQTQWDPPTWESPGDDAS [K23S], the abundance fitness was -0.279 ± 0.073.

SPPKPKTIVLPPNWKTARDPEGAIYYYHVITRQTQWDPPTWESPGDDAS [K23A]: the abundance fitness is -0.288 ± 0.076.
